This note sets out measurements from US20150337042A1 (AbbVie / Abbott, published 2015).

Assay [1] addresses T1, truncated wild type EGFR 1-525 (EGFR1 (1-525)-SRGPF-Myc-NMHTG-6His) (human, UniProt P00533 25-525).
T1 construct: the signal peptide is left out; not shown: Myc tag
Nature of the assay: SPR (Biacore), antibody captured via anti-human Fc, antigen injected. On the procedure: (§1) Biacore analysis was performed using a Biacore T100 with a CM5 sensory chip, and test antibodies were captured via anti-human Fc antibodies that were amino coupled to the chip using a standard amine coupling kit according to manufacturer's instructions (GE healthcare). Briefly, a CM5 chip surface was activated with EDC/NHS. Goat anti-human Fc specific polyclonal antibody (Thermo Fisher Scientific Inc., Rockford, Ill.) was diluted to 25 μg/mL in 10 mM sodium acetate (pH 4.5) and injected over the activated surface to achieve immobilization. Unreacted moieties on the biosensor surface were blocked with ethanolamine. The Biacore T100 is a surface plasmon resonance based biosensor for detecting, characterizing and quantifying bimolecular interactions, including the interactions between an antibody and its antigen. Antigen was injected at 80 μL/minute for 3 minutes and dissociation was followed for 15 minutes.
(SPR reads the build-up and loss of mass on a sensor chip optically.)

Assay [2] addresses T2, EGFRvIII extracellular domain (EGFR (1-29)-G-(298-645)-LESRGPF-Myc-NMHTG-6His) (human, UniProt P00533 298-641).
T2 construct: also called recombinant EGFRvIII; not shown: Myc tag
The assay is described as above. On the procedure: as §1

The target of assay [3] is T1, truncated wild type EGFR 1-525 (EGFR1 …). Nature of the assay: SPR (Biacore T100), antibody captured on anti-human Fc, antigen in solution. As to the method:
as §1

The target in a further assay is T3, EGFRvIII on U87MG cells (human, UniProt P00533 298-1210).
T3 construct: also called de2-7 EGFR
Nature of the assay: competition FACS on U87MG de2-7 cells expressing EGFRvIII; competitor Ab1-FITC at 100 nM.

The target in assay [4] is T4, wild type human EGFR on cells (A431, NHEK, SCC-15, H292) (human, UniProt P00533 25-1210).
T4 construct: Endogenous receptor of human cell lines and keratinocytes said to express wild type EGFR; also called wild type EGFR; wtEGFR
Description: FACS binding to normal human epidermal keratinocytes (NHEK), AlexaFluor 488 secondary antibody. On the procedure:
NHEK cells express wild type EGFR.
Cells were harvested when approximately 80% confluent using trypsin, neutralized and washed once in PBS/1% FBS (FACS buffer) then resuspended at 2.5×10⁶ cells/mL in FACS buffer. 100 μL of cells/well were added to a round bottom 96-well plate. 10 μL of a 10x concentration of Ab (final concentrations are listed in the Figures) was added and plate was incubated at 4° C. for one hour. Wells were washed twice with FACS buffer then resuspended in 50 μL of secondary Ab (AlexaFluor 488) diluted in FACS buffer. The plate was incubated at 4° C. for one hour then washed twice with FACS buffer. Cells were then resuspended in 100 μL of PBS/1% formaldehyde and analyzed on a Becton Dickinson LSRII flow cytometer. Data was analyzed using WinList flow cytometry analysis software.
A general note: A flow cytometer gives signals particle by particle.

B1: Antibody N (AbN) (antibody, V domains shown)
VH: EVQLQESGPGLVKPSQTLSLTCTVSGYSIGRDFAWNWIRQPPGKGLEWMGYISYSGNTRYQPSLKSRITISRDTSKNQFFLKLNSVTAADTATYYCVTASRGFPYWGQGTLVTVSS
VL: DIQMTQSPSSMSVSVGDRVTITCHSSQDITYNVGWLQQKPGKSFKGLIYHGSNLDHGVPSRFSGSGSGTDYTLTISSLQPEDFATYYCVQYDDFPWTFGGGTKLEIK
notes: Full length IgG1
In general, Kd refers to a measure of binding affinity in units of concentration. Read a low Kd as a tighter complex. The term koff denotes a measure of how fast the partners let go of each other. Low values mean slow dissociation, high ones fast dissociation. Usually kon stands for a measure of how fast the partners come together. High values mean faster complex formation, low ones slower complex formation. As to B1, in assay [1], the “KD ratio (Ab1/variant Ab)” value was 642; the affinity, expressed as Kd, was 3.5 nM; the koff was found to be 1.71e-05 s⁻¹; the kon amounted to 4840 M⁻¹ s⁻¹. In assay [2], the “KD ratio (Ab1/variant Ab)” value was found to be 12.5, the Kd is 0.75 nM, the koff turned out to be 0.000103 s⁻¹ and the kon was found to be 137000 M⁻¹ s⁻¹.

B2: Antibody E (AbE) (antibody, V domains shown)
VH: EVQLQESGPGLVKPSQTLSLTCTVSGYSISSDFAWNWIRQPPGKGLEWMGYISYSGNTRYQPSLKSRITISRDTSKNQFFLKLNSVTAADTATYYCVTAGRGFPYWGQGTLVTVSS
VL: DIQMTQSPSSMSVSVGDRVTITCHSSQDINSNLGWLQQKPGKSFKGLIYHGSNLDHGVPSRFSGSGSGTDYTLTISSLQPEDFATYYCVQYDQFPWTFGGGTKLEIK
notes: Full length IgG1
As for B2, in assay [1], the “KD ratio (Ab1/variant Ab)” value amounted to 3.8, the koff came to 0.00367 s⁻¹ and the kon turned out to be 6170 M⁻¹ s⁻¹. In addition, in assay [2], the “KD ratio (Ab1/variant Ab)” value was determined as 1.2, the Kd is 8.2 nM, the koff was 0.00158 s⁻¹ and the kon is 193000 M⁻¹ s⁻¹. In assay [3], the Kd came to 590 nM and the “fold increase in affinity over the KD of Ab1” value is about 4 fold.

B3: Antibody J (AbJ) (antibody, V domains shown)
VH: EVQLQESGPGLVKPSQTLSLTCTVSGYSIGKDFAWNWIRQPPGKGLEWMGYISYSGNTRYQPSLKSRITISRDTSKNQFFLKLNSVTAADTATYYCVTASRGLPYWGQGTLVTVSS
VL: DIQMTQSPSSMSVSVGDRVTITCHSSQDITYNIGWLQQKPGKSFKGLIYHGANLDDGVPSRFSGSGSGTDYTLTISSLQPEDFATYYCVQYDEFPWTFGGGTKLEIK
notes: Full length IgG1
For B3, in assay [1], the “KD ratio (Ab1/variant Ab)” value is 60.5, binding was characterised by a dissociation constant (Kd) of 38 nM, the off-rate (koff) came to 8.27e-05 s⁻¹ and the kon turned out to be 2200 M⁻¹ s⁻¹. In assay [2], the “KD ratio (Ab1/variant Ab)” value is 31.8; the affinity, expressed as Kd, was 0.3 nM; the koff was determined as 9.4e-05 s⁻¹; the kon worked out at 318000 M⁻¹ s⁻¹.

B4: Antibody D (AbD) (antibody, V domains shown)
VH: EVQLQESGPGLVKPSQTLSLTCTVSGYSISSDFAWNWIRQPPGKGLEWMGYISYSGNTRYQPSLKSRITISRDTSKNQFFLKLNSVTAADTATYYCVTAGRGFPYWGQGTLVTVSS
VL: DIQMTQSPSSMSVSVGDRVTITCHSSQDINSNLGWLQQKPGKSFKGLIYHGANLHDGVPSRFSGSGSGTDYTLTISSLQPEDFATYYCVQYAEFPWTFGGGTKLEIK
notes: Full length IgG1
Take B4: in assay [1], the “KD ratio (Ab1/variant Ab)” value was 4.1, the Kd came to 550 nM, the koff was determined as 0.00322 s⁻¹ and the association rate constant (kon) came out at 5820 M⁻¹ s⁻¹. Moreover, in assay [2], the “KD ratio (Ab1/variant Ab)” value is 1.5, the Kd was found to be 6.1 nM, the koff came out at 0.000866 s⁻¹ and the kon was found to be 141000 M⁻¹ s⁻¹.

B5: Antibody H (AbH) (antibody, V domains shown)
VH: EVQLQESGPGLVKPSQTLSLTCTVSGYSIGKDFAWNWIRQPPGKGLEWMGYISYNGNTRYQPSLKSRITISRDTSKNQFFLKLNSVTAADTATYYCVTASRGLPYWGQGTLVTVSS
VL: DIQMTQSPSSMSVSVGDRVTITCHSSQDITYNIGWLQQKPGKSFKGLIYHGANLDDGVPSRFSGSGSGTDYTLTISSLQPEDFATYYCVQYDEFPWTFGGGTKLEIK
notes: Full length IgG1
For the molecule B5, in assay [1], the “KD ratio (Ab1/variant Ab)” value is 441, the Kd amounted to 5.2 nM, the koff was 4.07e-05 s⁻¹ and the kon is 7900 M⁻¹ s⁻¹. Also, in assay [2], the “KD ratio (Ab1/variant Ab)” value was 63.1, binding was characterised by a dissociation constant (Kd) of 0.15 nM, the koff was found to be 4.89e-05 s⁻¹ and the kon amounted to 327000 M⁻¹ s⁻¹.

B6: Antibody B (AbB) (antibody, V domains shown)
VH: EVQLQESGPGLVKPSQTLSLTCTVSGYSISNDFAWNWIRQPPGKGLEWMGYISYKGNTRYQPSLKSRITISRDTSKNQFFLKLNSVTAADTATYYCVTASRGFPWWGQGTLVTVSS
VL: DIQMTQSPSSMSVSVGDRVTITCHSSQDINSNIGWLQQKPGKSFKGLIYHGTNLDDGVPSRFSGSGSGTDYTLTISSLQPEDFATYYCVQYAQFPWTFGGGTKLEIK
notes: Converted from scFv into a full length IgG1 antibody
Regarding B6, in assay [1], the “KD ratio (Ab1/variant Ab)” value came out at 10.5; the affinity, expressed as Kd, was 220 nM; the koff stood at 0.00119 s⁻¹; the kon was found to be 5460 M⁻¹ s⁻¹. In addition, in assay [2], the “KD ratio (Ab1/variant Ab)” value turned out to be 4.2, the Kd was determined as 2.2 nM, the koff was 0.000173 s⁻¹ and the kon was found to be 78300 M⁻¹ s⁻¹.

B7: Antibody L (AbL) (antibody, V domains shown)
VH: EVQLQESGPGLVKPSQTLSLTCTVSGYSIGKDFAWNWIRQPPGKGLEWMGYISYNGNTRYQPSLKSRITISRDTSKNQFFLKLNSVTAADTATYYCVTASRGLPYWGQGTLVTVSS
VL: DIQMTQSPSSMSVSVGDRVTITCHSSQDITYNVGWLQQKPGKSFKGLIYHGSNLDHGVPSRFSGSGSGTDYTLTISSLQPEDFATYYCVQYDDFPWTFGGGTKLEIK
notes: Full length IgG1
Turning to B7, in assay [1], the “KD ratio (Ab1/variant Ab)” value was 722, binding was put at a Kd of 3.1 nM, the koff was found to be 1.78e-05 s⁻¹ and the kon turned out to be 5650 M⁻¹ s⁻¹. In addition, in assay [2], the “KD ratio (Ab1/variant Ab)” value worked out at 27.1, the Kd came out at 0.35 nM, the koff amounted to 6.95e-05 s⁻¹ and the kon amounted to 200000 M⁻¹ s⁻¹.

B8: Antibody M (AbM) (antibody, V domains shown)
VH: EVQLQESGPGLVKPSQTLSLTCTVSGYSIGRDFAWNWIRQPPGKGLEWMGYISYNGNTRYQPSLKSRITISRDTSKNQFFLKLNSVTAADTATYYCVTASRGFPYWGQGTLVTVSS
VL: DIQMTQSPSSMSVSVGDRVTITCHSSQDITYNVGWLQQKPGKSFKGLIYHGSNLDHGVPSRFSGSGSGTDYTLTISSLQPEDFATYYCVQYDDFPWTFGGGTKLEIK
notes: Full length IgG1
By EC50 (read off the curve) is commonly meant the concentration needed to bring the measured effect to its halfway point. Take B8: in assay [1], the “KD ratio (Ab1/variant Ab)” value came out at 387, the Kd worked out at 5.9 nM, the koff amounted to 2.26e-05 s⁻¹ and the kon amounted to 3840 M⁻¹ s⁻¹. Besides, in assay [2], the “KD ratio (Ab1/variant Ab)” value amounted to 14.9, the Kd amounted to 0.63 nM, the koff came out at 0.000118 s⁻¹ and the kon turned out to be 187000 M⁻¹ s⁻¹. In addition, in the assay with EGFRvIII on U87MG cells, the “IC50 (read off the curve)” value was about 30 nM. The “EC50 (read off the curve)” value in assay [4] is about 40 nM.

B9: Antibody F (AbF) (antibody, V domains shown)
VH: EVQLQESGPGLVKPSQTLSLTCTVSGYSISRDFAWNWIRQPPGKGLEWMGYISYSGNTRYQPSLKSRITISRDTSKNQFFLKLNSVTAADTATYYCVTASRGFPYWGQGTLVTVSS
VL: DIQMTQSPSSMSVSVGDRVTITCHSSQDINSNIGWLQQKPGKSFKGLIYHGTNLDDGVPSRFSGSGSGTDYTLTISSLQPEDFATYYCVQYAQFPWTFGGGTKLEIK
notes: Full length IgG1
As for B9, in assay [1], the “KD ratio (Ab1/variant Ab)” value was determined as 5.4, binding was put at a Kd of 420 nM, the koff stood at 0.000831 s⁻¹ and the kon stood at 1980 M⁻¹ s⁻¹. Moreover, in assay [2], the “KD ratio (Ab1/variant Ab)” value worked out at 2.4, the Kd was 3.9 nM, the off-rate (koff) was found to be 0.000324 s⁻¹ and the kon is 83600 M⁻¹ s⁻¹.

B10: Antibody C (AbC) (antibody, V domains shown)
VH: EVQLQESGPGLVKPSQTLSLTCTVSGYSISSDFAWNWIRQPPGKGLEWMGYISYSGNTRYQPSLKSRITISRDTSKNQFFLKLNSVTAADTATYYCVTAGRGFPYWGQGTLVTVSS
VL: DIQMTQSPSSMSVSVGDRVTITCHSSQDINSNIGWLQQKPGKSFKGLIYHGTNLDDGVPSRFSGSGSGTDYTLTISSLQPEDFATYYCVQYEQFPWTFGGGTKLEIK
notes: Full length IgG1
For the molecule B10, in assay [2], the “KD ratio (Ab1/variant Ab)” value amounted to 2.6, binding was characterised by a dissociation constant (Kd) of 3.6 nM, the koff was found to be 0.00079 s⁻¹ and the kon was 220000 M⁻¹ s⁻¹.
